The values that follow come from patent publication US20210221863A1 (Innovent, published 2021).

What is called Kd is the free concentration of one partner at which half of the binding sites on the other are occupied at equilibrium, for simple one-to-one binding.

The target in experiment [1] is T1, IL-2Rα-Biotin (Homo sapiens (Human), UniProt P01589 22-217, biotin on the avi tag (enzymatic labeling with His-BirA)).
T1 construct: also called CD25; IL-2Rα receptor
T1 sequence: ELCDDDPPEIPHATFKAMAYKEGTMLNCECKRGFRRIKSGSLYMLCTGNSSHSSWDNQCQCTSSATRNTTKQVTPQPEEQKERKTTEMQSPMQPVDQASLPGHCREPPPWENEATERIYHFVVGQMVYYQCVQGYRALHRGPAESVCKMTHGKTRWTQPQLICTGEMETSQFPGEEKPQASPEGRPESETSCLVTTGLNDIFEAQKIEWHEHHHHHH
Briefly: BLI (Octet Red96): biotinylated receptor on SA sensor, 100 nM Fc fusion in solution.

For experiment [2], the target named is T2, IL-2Rα (CD25) on primary human CD8^+ CD25^+ T cells (human, UniProt P01589 22-272).
T2 sequence (looked up): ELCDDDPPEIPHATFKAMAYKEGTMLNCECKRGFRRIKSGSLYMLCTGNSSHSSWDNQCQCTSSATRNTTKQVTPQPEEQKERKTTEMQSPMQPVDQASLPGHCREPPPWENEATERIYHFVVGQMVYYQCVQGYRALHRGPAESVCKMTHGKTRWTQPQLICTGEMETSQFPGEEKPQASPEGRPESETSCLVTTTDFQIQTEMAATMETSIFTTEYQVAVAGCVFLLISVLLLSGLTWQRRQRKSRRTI
Briefly: cell-based or functional assay.

Experiment [3] addresses T2, IL-2Rα (CD25) on primary human CD8^+ …. Nature of the experiment: cell-based or functional assay. This is another data set of the same source.
The target in experiment [4] is T3, IL-2Rβ IH-Biotin (Homo sapiens (Human), UniProt P14784 27-240, biotin on the avi tag (enzymatic labeling with His-BirA)).
T3 construct: also called IL-2Rβ IH (in house); CD122
T3 sequence: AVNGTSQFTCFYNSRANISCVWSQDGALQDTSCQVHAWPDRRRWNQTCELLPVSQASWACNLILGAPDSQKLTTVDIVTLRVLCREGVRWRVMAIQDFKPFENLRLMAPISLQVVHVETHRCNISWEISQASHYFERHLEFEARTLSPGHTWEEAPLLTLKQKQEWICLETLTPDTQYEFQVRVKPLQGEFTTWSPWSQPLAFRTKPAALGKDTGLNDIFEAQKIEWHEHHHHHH
Briefly: BLI (Octet Red96): biotinylated receptor on SA sensor, 100 nM Fc fusion in solution, 1:1 model. On the procedure:
A BLI affinity assay was performed according to the prior art (Estep, P, et al., High throughput solution based measurement of antibody-antigen affinity and epitope binning. MAbs, 2013.5(2): p. 270-8). […] Kinetic analysis was performed on the assay results using a 1:1 binding model.
(Biolayer interferometry detects binding as a change in optical thickness at a sensor tip.)

Experiment [5] concerns the target T1, IL-2Rα-Biotin. Briefly: flow cytometry: yeast-displayed IL-2 stained with 50 nM IL-2Rα-Biotin. Here is the method:
(§1) 1. 1×10⁶ cells from each sample were centrifuged to discard the supernatant, and washed with FACS buffer once for later use; [0133] 2. the cells were added to 100 μL of FACS buffer containing 50 nM IL-2Rα-Biotin and Anti Flag antibody, and incubated at room temperature for 30 min; [0134] 3. the mixture was centrifuged at 3000 rpm, 4° C. for 3 min, and washed with pre-cooled FACS buffer twice; [0135] 4. 100 μL of FACS buffer containing SA-PE and goat anti-mouse conjugated with Alex Flour-647 was added, and the mixture was incubated on ice for 20 min away from light; [0136] 5. after being washed twice with pre-cooled FACS buffer, the cells were resuspended in 100 μL of buffer, and the binding level of IL-2^mutant to IL-2Rα was assayed by a flow cytometer (BD, ACCURI C6). […] 1. […] 2. the cells were added to 100 μL of FACS buffer containing IL-2Rβ IH-Biotin (30 nM-100 nM) and Anti Flag antibody, and incubated at room temperature for 30 min; [0139] 3. following steps 3-5 described above, the binding level of IL-2^mutant to IL-2Rβ was assayed.
Background: In flow cytometry, cells or beads pass a laser one at a time.

The target of experiment [6] is T3, IL-2Rβ IH-Biotin. Nature of the experiment: flow cytometry: yeast-displayed IL-2 stained with IL-2Rβ IH-Biotin (30 nM-100 nM). On the procedure: as §1

Positions count from the first letter of the chain named. Where two headings read alike, the source gives them in different places.

B1: IL-2^3X-FC fusion protein (Fc fusion, not shown: small tags and cut ends; a dimerising Fc or GST)
chain: APTSSSTKKTQLQLEHLLLDLQMILNGINNYKNPKLTDMLTFEFYMPKKATELKHLQCLERELKPLEEVLNLAQSKNFHLRPRDLISNINVIVLELKGSETTFMCEYADETATIVEFLNRWITFSQSIISTLT
As for B1, the binding result with IL-2Rα-Biotin [1] is reported as “no binding (tested: 100 nM)”. Moreover, the “EC50 (read off the curve) of p-STAT5 activation” value in experiment [2] was approximately 6 nM; in experiment [3] it was approximately 7 nM. In addition, the dissociation constant Kd in the experiment with IL-2Rβ IH-Biotin [4] amounted to 16 nM.

B2: IL-2^3x displayed on the surface of yeasts (ligand, not shown: small tags and cut ends)
chain: B1 chain
notes: Control on yeast cells
With B2, the binding result in the experiment with IL-2Rα-Biotin [5] was “no binding (tested: 50 nM)”.

B3: IL-2^H9 displayed on the surface of yeasts (ligand, not shown: small tags and cut ends)
chain: B1 chain with D38R, E43K, R61E, L80F, R81D, L85V, I86V, I92F
notes: Control on yeast cells
Consider B3, for which the binding result with IL-2Rβ IH-Biotin [6] was “binds”.
